Test results taken from patent publication US20210253718A1, “FRIZZLED5 PROTEIN-BINDING AGENTS” (Modmab Therapeutics Corporation, priority 2016, published 2021).

T1: FZD8 CRD (Homo sapiens, UniProt Q9H461)
T1 construct: K31-D155; GPI anchor signal (C); expressed in transfected cells; host or cells: CHO cells, lentiviral pLenti-puro
T1 sequence (Q9H461 31-155): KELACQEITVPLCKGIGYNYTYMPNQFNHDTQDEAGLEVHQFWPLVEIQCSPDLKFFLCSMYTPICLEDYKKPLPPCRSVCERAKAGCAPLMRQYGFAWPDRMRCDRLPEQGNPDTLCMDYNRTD

T2: FZD9 CRD (Homo sapiens, UniProt O00144)
T2 construct: G35-A161; GPI anchor signal (C); expressed in transfected cells; host or cells: CHO cells, lentiviral pLenti-puro
T2 sequence (O00144 35-161): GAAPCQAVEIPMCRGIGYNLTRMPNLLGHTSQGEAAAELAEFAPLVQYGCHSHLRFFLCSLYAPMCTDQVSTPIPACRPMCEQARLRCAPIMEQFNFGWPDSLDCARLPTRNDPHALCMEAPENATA

T3: FZD10 CRD (Homo sapiens, UniProt Q9ULW2)
T3 construct: 30-156; GPI anchor signal (C); expressed in transfected cells; host or cells: CHO cells, lentiviral pLenti-puro
T3 sequence (Q9ULW2 30-156): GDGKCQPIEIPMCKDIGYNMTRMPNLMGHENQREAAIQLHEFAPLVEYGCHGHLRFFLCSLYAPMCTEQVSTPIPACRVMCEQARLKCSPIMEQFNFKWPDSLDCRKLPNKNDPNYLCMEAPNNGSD


What was measured:
FZD7 CRD = target: T4, FZD7 CRD (Homo sapiens, UniProt O75084); test: Immunofluorescence of anti-FZD5 Fab binding to CHO cells overexpressing Frizzled CRD; design: key: −: no binding; +: very weak binder; ++: weak binder; +++: good binder; ++++: very good binder
T4 construct: D45-S169; GPI anchor signal (C); expressed in transfected cells; host or cells: CHO cells, lentiviral pLenti-puro
Outline: (§1)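 Specificity of anti-FZD5 Fabs was tested on CHO cells displaying membrane-anchored Frizzled CRDs (myc-tagged, GPI-linked), one family member per line. Detection was by immunofluorescence.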

FZD2 CRD = target: T5, FZD2 CRD (Homo sapiens, UniProt Q14332); test: as above; design: key: −: no binding; +: very weak binder; ++: weak binder; +++: good binder; ++++: very good binder
T5 construct: D35-P161; GPI anchor signal (C); expressed in transfected cells; host or cells: CHO cells, lentiviral pLenti-puro
Outline: as §1

FZD8 CRD = target: T1, FZD8 CRD; test: as above; design: key: −: no binding; +: very weak binder; ++: weak binder; +++: good binder; ++++: very good binder
Outline: as §1

FZD9 CRD = target: T2, FZD9 CRD; test: as above; design: key: −: no binding; +: very weak binder; ++: weak binder; +++: good binder; ++++: very good binder
Outline: as §1

FZD10 CRD = target: T3, FZD10 CRD; test: as above; design: key: −: no binding; +: very weak binder; ++: weak binder; +++: good binder; ++++: very good binder
Outline: as §1

[1] = system: CHO cells not expressing Frizzled CRD; test: Flow cytometry of anti-FZD5 Fab binding to CHO cells not expressing Frizzled CRD (background)
Description: The binding of anti-FZD5 Fabs to cell surface-expressed Frizzled protein was further determined for each member of the Frizzled family via flow cytometry and immunofluorescence analysis of a panel of 10 CHO cell lines, each ectopically over-expressing the extracellular cysteine-rich domain (CRD) of a different Frizzled protein family member.

PATU8988S cells = test: Effect of anti-FZD5 Fabs on proliferation of pancreatic cancer cell lines (percent growth inhibition); type: cell-based, human; details: Fab 2 μg/ml

Molecule | Immunofluorescence binding, Frizzled CRD overexpressed on CHO cells: FZD7 (FZD7 CRD) | Immunofluorescence binding, Frizzled CRD overexpressed on CHO cells: FZD2 (FZD2 CRD) | Immunofluorescence binding, Frizzled CRD overexpressed on CHO cells: FZD8 (FZD8 CRD) | Immunofluorescence binding, Frizzled CRD overexpressed on CHO cells: FZD9 (FZD9 CRD) | Immunofluorescence binding, Frizzled CRD overexpressed on CHO cells: FZD10 (FZD10 CRD) | Median fluorescence, Frizzled CRD overexpressed on CHO cells: None [1] | percent growth inhibition, PATU8988s 2 μg/ml (PATU8988S cells) [%]
Fab-2911: anti-FZD5 Fab with antibody variable region Fv-2911; CDR SEQ ID NOs: 35, 36, 50, 89, 126, 163 (antibody, V domains shown) VH: EVQLVESGGGLVQPGGSLRLSCAASGFNIYYSSMHWVRQAPGKGLEWVAYIYPYSGYTSYADSVKGRFTISADTSKNTAYLQMNSLRAEDTAVYYCARYFWWYGFDYWGQGTLVTVSS VL: DIQMTQSPSSLSASVGDRVTITCRASQSVSSAVAWYQQKPGKAPKLLIYSASSLYSGVPSRFSGSRSGTDFTLTISSLQPEDFATYYCQQGPWYPFTFGQGTKVEIK | +++ | +++ | − | − | − | 4.53 | 8.24
Fab-2919: anti-FZD5 Fab with antibody variable region Fv-2919; CDR SEQ ID NOs: 35, 36, 58, 97, 134, 155 (antibody, V domains shown) VH: EVQLVESGGGLVQPGGSLRLSCAASGFNISYSYIHWVRQAPGKGLEWVASIYSSSGSTSYADSVKGRFTISADTSKNTAYLQMNSLRAEDTAVYYCARGAIDYWGQGTLVTVSS VL: DIQMTQSPSSLSASVGDRVTITCRASQSVSSAVAWYQQKPGKAPKLLIYSASSLYSGVPSRFSGSRSGTDFTLTISSLQPEDFATYYCQQWYSSGHVLITFGQGTKVEIK | − | − | ++ | − | − | 3.08 | −7.74
Fab-2912: anti-FZD5 Fab with antibody variable region Fv-2912; CDR SEQ ID NOs: 35, 36, 51, 90, 127, 164 (antibody, V domains shown) VH: EVQLVESGGGLVQPGGSLRLSCAASGFNISYSYIHWVRQAPGKGLEWVASISSSSGYTSYADSVKGRFTISADTSKNTAYLQMNSLRAEDTAVYYCARTVRGSKKPYFSGWAMDYWGQGTLVTVSS VL: DIQMTQSPSSLSASVGDRVTITCRASQSVSSAVAWYQQKPGKAPKLLIYSASSLYSGVPSRFSGSRSGTDFTLTISSLQPEDFATYYCQQFYFPYLITFGQGTKVEIK | ++++ | +++ | + | − | − | 4.49 | 1.11
Fab-2915: anti-FZD5 Fab with antibody variable region Fv-2915; CDR SEQ ID NOs: 35, 36, 54, 93, 130, 166 (antibody, V domains shown) VH: EVQLVESGGGLVQPGGSLRLSCAASGFNIYYYSMHWVRQAPGKGLEWVASIYSSYGYTSYADSVKGRFTISADTSKNTAYLQMNSLRAEDTAVYYCARGYHYYPYYSGLDYWGQGTLVTVSS VL: DIQMTQSPSSLSASVGDRVTITCRASQSVSSAVAWYQQKPGKAPKLLIYSASSLYSGVPSRFSGSRSGTDFTLTISSLQPEDFATYYCQQAYYHSLITFGQGTKVEIK | ++++ | +++ | + | − | − | 4.49 | −6.43
Fab-2914: anti-FZD5 Fab with antibody variable region Fv-2914; CDR SEQ ID NOs: 35, 36, 53, 92, 129, 162 (antibody, V domains shown) VH: EVQLVESGGGLVQPGGSLRLSCAASGFNIYYSYMHWVRQAPGKGLEWVASIYPSSSSTSYADSVKGRFTISADTSKNTAYLQMNSLRAEDTAVYYCARGAMDYWGQGTLVTVSS VL: DIQMTQSPSSLSASVGDRVTITCRASQSVSSAVAWYQQKPGKAPKLLIYSASSLYSGVPSRFSGSRSGTDFTLTISSLQPEDFATYYCQQWYYGSLITFGQGTKVEIK | ++++ | +++ | ++ | − | − | 4.37 | −15.14
Fab-2920: anti-FZD5 Fab with antibody variable region Fv-2920; CDR SEQ ID NOs: 35, 36, 59, 98, 135, 170 (antibody, V domains shown) VH: EVQLVESGGGLVQPGGSLRLSCAASGFNISYYYIHWVRQAPGKGLEWVASIYPSSGSTSYADSVKGRFTISADTSKNTAYLQMNSLRAEDTAVYYCARGGMDYWGQGTLVTVSS VL: DIQMTQSPSSLSASVGDRVTITCRASQSVSSAVAWYQQKPGKAPKLLIYSASSLYSGVPSRFSGSRSGTDFTLTISSLQPEDFATYYCQQWFAGALITFGQGTKVEIK | − | − | + | − | − | 3.37 | 6.20
Fab-2913: anti-FZD5 Fab with antibody variable region Fv-2913; CDR SEQ ID NOs: 35, 36, 52, 91, 128, 165 (antibody, V domains shown) VH: EVQLVESGGGLVQPGGSLRLSCAASGFNISYSSIHWVRQAPGKGLEWVASIYPYSSSTSYADSVKGRFTISADTSKNTAYLQMNSLRAEDTAVYYCARYGYYGLDYWGQGTLVTVSS VL: DIQMTQSPSSLSASVGDRVTITCRASQSVSSAVAWYQQKPGKAPKLLIYSASSLYSGVPSRFSGSRSGTDFTLTISSLQPEDFATYYCQQWGVSHYLFTFGQGTKVEIK | ++++ | +++ | − | − | − | 3.85 | −15.09
Fab-2916: anti-FZD5 Fab with antibody variable region Fv-2916; CDR SEQ ID NOs: 35, 36, 55, 94, 131, 167 (antibody, V domains shown) VH: EVQLVESGGGLVQPGGSLRLSCAASGFNISYSSIHWVRQAPGKGLEWVASIYPSYSYTYYADSVKGRFTISADTSKNTAYLQMNSLRAEDTAVYYCARYGYYGMDYWGQGTLVTVSS VL: DIQMTQSPSSLSASVGDRVTITCRASQSVSSAVAWYQQKPGKAPKLLIYSASSLYSGVPSRFSGSRSGTDFTLTISSLQPEDFATYYCQQWYHYPYLITFGQGTKVEIK | ++++ | ++++ | + | − | − | 4.22 | −25.67
